The text below walks through data of US20240417436A1 (BRIGHT PEAK THERAPEUTICS, published 2024).

Assay [1] addresses T1, recombinant human IL-2 receptor beta containing a His-tag and Avi-Tag (R&D Systems #AVI10459) (human, UniProt P14784 27-239).
T1 construct: bought protein, held on the Octet SAX2 sensor; also called CD122; IL-2Rβ
T1 sequence (looked up): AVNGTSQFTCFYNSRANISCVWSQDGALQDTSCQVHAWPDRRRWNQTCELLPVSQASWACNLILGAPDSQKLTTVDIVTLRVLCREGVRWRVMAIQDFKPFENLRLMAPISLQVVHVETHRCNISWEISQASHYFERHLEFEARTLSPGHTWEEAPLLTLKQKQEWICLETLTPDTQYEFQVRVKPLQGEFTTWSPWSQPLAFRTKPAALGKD
The experiment in a line: BLI (Octet), receptor on SAX2 sensor, IL-2 as analyte; construct CMP-167, intact (not the MMP2-treated row r22). The protocol: (§1) Bilayer interferometry (BLI) assays were used to measure the binding constants between activatable IL-2 polypeptides (and activated versions thereof) to IL-2 receptor subunits or receptor complexes. BLI assays were conducted on an Octet® R8 instrument. Assay plates were 96 well, polypropylene, F-bottom (chimney well), black microplates (Greiner Bio-one, Cat. No: 655209). The biosensors were Octet® SAX2 (Sartorius, Cat. No: 18-5136). The assay buffer was 1× Kinetic Buffer (Sartorius, Cat. no: 18-5136) or Phosphate Buffered Saline (PBS) that contained 0.02% (v: v) Tween 20 (Polysorbate 20) and 0.1% (w/v) bovine serum albumin (BSA). The sensor was regenerated between measurements in 10 mM glycine pH 2.7 buffer.
(§2) Sensor attached receptors were either recombinant human IL-2 receptor beta containing a His-tag and Avi-Tag™ (R&D Systems™ #AVI10459) or an Avi-Tag™ Fc with human IL-2R beta and IL-2R gamma attached (Acrobiosystems Cat. no: ACRB-ILG-H82F3-25UG). Receptors were reconstituted from lyophilized powder to 500 μg/ml in PBS. Analytes were diluted in Kinetic buffer to 300 nM, then serially diluted to lower concentrations.
In general terms: Biolayer interferometry detects binding as a change in optical thickness at a sensor tip.

Assay [2] has as its target T1, recombinant human IL-2 receptor beta …. The assay is described as follows: BLI (Octet), receptor on SAX2 sensor, IL-2 as analyte; construct CMP-313. The protocol:
as §1, §2

Assay [3] deals with T2, Avi-Tag Fc with human IL-2R beta and IL-2R gamma attached (Acrobiosystems ACRB-ILG-H82F3-25UG) (human, UniProt P14784 27-239; P31785 23-262).
T2 construct: bought heterodimer; also called CD122 CD132; CD122/CD132 complex
T2 sequence (looked up) 1: T1 sequence (looked up)
T2 sequence (looked up) 2: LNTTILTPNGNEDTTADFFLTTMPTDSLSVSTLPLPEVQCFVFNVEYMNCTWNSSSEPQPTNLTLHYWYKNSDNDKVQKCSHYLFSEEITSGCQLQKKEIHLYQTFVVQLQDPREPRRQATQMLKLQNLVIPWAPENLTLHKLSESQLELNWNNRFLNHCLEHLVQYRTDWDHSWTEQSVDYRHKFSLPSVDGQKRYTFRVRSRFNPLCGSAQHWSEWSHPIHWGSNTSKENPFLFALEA
The assay is described as follows: BLI (Octet), receptor on SAX2 sensor, IL-2 as analyte. The procedure: as §1, §2

The target of assay [4] is T1, recombinant human IL-2 receptor beta …. The experiment in a line: BLI (Octet), receptor on SAX2 sensor, IL-2 as analyte; construct CMP-166, intact (not the MMP2-treated row r19). The protocol: as §1, §2
For assay [5] the target is unchanged. The assay is described as follows: BLI (Octet), receptor on SAX2 sensor, IL-2 as analyte; construct CMP-165, intact (not the MMP2-treated row r16). The protocol:
as §1, §2

Assay [6] has the same target. The experiment in a line: BLI (Octet), receptor on SAX2 sensor, IL-2 as analyte. The procedure:
as §1, §2

For assay [7] the target is unchanged. The experiment in a line: BLI (Octet), receptor on SAX2 sensor, IL-2 as analyte; construct CMP-328. The protocol:
as §1, §2

*1 amine or outer side, *2 acyl side, *3 side chain or, on linkers, in order; H or OH if unused. Bridges are numbered along the chain shown (N, C = ends). Primed or numbered codes have the meaning given here. [ ]: non-standard residue; d: D form. cleavable peptide RGRRVANLVG = CC(C)C[C@H](NC(=O)[C@H](CC(N)=O)NC(=O)[C@H](C)NC(=O)[C@@H](NC(=O)[C@H](CCCNC(=N)N)NC(=O)[C@H](CCCNC(=N)N)NC(=O)CNC(=O)[C@H](CCCNC(=N)N)N[*:1])C(C)C)C(=O)N[C@H](C(=O)NCC(=O)[*:2])C(C)C; Ygp = O-(8x polyethylene glycol-amino)-tyrosine; Yn3 = O-(9x polyethylene glycol-azido)-tyrosine; Ygp(3) = O-(PEG8-amino)-tyrosine; Yn3(3) = O-(PEG9-azido)-tyrosine; hSer = N[C@@H](CCO)C(=O)O; Nle = CCCC[C@H](N)C(=O)O

B1: CMP-167 (ligand)
chain: APTSSSTKKTQLQLEHLLLDLQKILNGINNYKNPKLTR[Nle]L[hSer][Yn3]KF[Ygp][Nle]PKKATELKHLQCLEEELKPLEEVL[hSer]LAQSKNFHLRPRDLISNINVIVLELKGSETTF[hSer]CEYADETATIVEFLNRWITFSQSIISTLT
modifications: disulfide 58-105 (inferred); bridge N-23; not fully specified (bridges); also: cleavable peptide (sequence not given here) joined to N-terminus via glutaryl-PEG9 and to Lys23 side chain
For the molecule B1, in assay [1], the Kd – broadly, the constant that tells how readily two partners part at equilibrium – came to 215 nM.

B2: CMP-313 (ligand)
chain: APTSSSTKKTQLQLEHLLLDLQK(KKRGRRVANLVG)ILNGINNYKNPKLTR[Nle]L[hSer][Yn3(3)]KF[Ygp(3)][Nle]PKKATELKHLQCLEEELKPLEEVL[hSer]LAQSKNFHLRPRDLISNINVIVLELKGSETTF[hSer]CEYADETATIVEFLNRWITFSQSIISTLT
modifications: disulfide 58-105; also: branched 27x PEG chains on the attached peptide
On to B2, for which the Kd in assay [2] worked out at 163 nM. The off-rate constant (koff) (usually a measure of how fast the partners let go of each other) in assay [3] stood at 0.00148 s⁻¹.

B3: CMP-166 (ligand)
chain: APTSSSTKKTQLQLEHLLLDLQKILNGINNYKNPKLTR[Nle]L[hSer][Yn3]KF[Ygp][Nle]PKKATELKHLQCLEEELKPLEEVL[hSer]LAQSKNFHLRPRDLISNINVIVLELKGSETTF[hSer]CEYADETATIVEFLNRWITFSQSIISTLT
modifications: disulfide 58-105 (inferred); bridge N-23; not fully specified (bridges); also: cleavable peptide (sequence not given here) joined to N-terminus via glutaryl-PEG4 and to Lys23 side chain
In the case of B3, the Kd in assay [4] amounted to 614 nM.

B4: CMP-165 (ligand)
chain: APTSSSTKKTQLQLEHLLLDLQKILNGINNYKNPKLTR[Nle]L[hSer][Yn3]KF[Ygp][Nle]PKKATELKHLQCLEEELKPLEEVL[hSer]LAQSKNFHLRPRDLISNINVIVLELKGSETTF[hSer]CEYADETATIVEFLNRWITFSQSIISTLT
modifications: disulfide 58-105 (inferred); bridge N-23; not fully specified (bridges)
On to B4, for which the Kd in assay [5] stood at 44200 nM.

B5: CMP-328 (ligand)
chain: APTSSSTKKTQLQLEHLLLDLQEILNGINNYKNPKLTR[Nle]L[hSer][Yn3(3)]KF[Ygp(3)][Nle]PKKATELKHLQCLEEELKPLEEVL[hSer]LAQSKNFHLRPRDLISNINVIVLELKGSETTF[hSer]CEYADETATIVEFLNRWITFSQSIISTLT
modifications: disulfide 58-105; linker 9-23 via cleavable peptide RGRRVANLVG; also: macrocycle: cleavable peptide bridging Lys9 and Glu23 side chains (structure drawing only)
Turning to B5, in assay [6], the koff amounted to 0.00154 s⁻¹ and the kon – broadly, a measure of how fast the partners come together – worked out at 4.52e+07 M⁻¹ s⁻¹. For the same molecule, in assay [3], binding was characterised by a dissociation constant (Kd) of 24.9 nM, the koff amounted to 0.00194 s⁻¹ and the association rate constant (kon) turned out to be 77800 M⁻¹ s⁻¹. Besides, the Kd in assay [7] was 0.034 nM.
